Patent US9618524B2, “Method, composition, isolation and identification of a plaque particle and related biomarker” (Plaxgen Inc., priority 2012, dated 2017)

B1: CD5 antigen-like (protein)
chain: SPSGVRLVGGLHRCEGRVEVEQKGQWGTVCDDGWDIKDVAVLCRELGCGAASGTPSGILYEPPAEKEQKVLIQSVSCTGTEDTLAQCEQEEVYDCSHDEDAGASCENPESSFSPVPEGVRLADGPGHCKGRVEVKHQNQWYTVCQTGWSLRAAKVVCRQLGCGRAVLTQKRCNKHAYGRKPIWLSQMSCSGREATLQDCPSGPWGKNTCNHDEDTWVECEDPFDLRLVGGDNLCSGRLEVLHKGVWGSVCDDNWGEKEDQVVCKQLGCGKSLSPSFRDRKCYGPGVGRIWLDNVRCSGEEQSLEQCQHRFWGFHDCTHQEDVAVICSG
B2: Alpha-2-antiplasmin (protein)
chain: NQEQVSPLTLLKLGNQEPGGQTALKSPPGVCSRDPTPEQTHRLARAMMAFTADLFSLVAQTSTCPNLILSPLSVALALSHLALGAQNHTLQRLQQVLHAGSGPCLPHLLSRLCQDLGPGAFRLAARMYLQKGFPIKEDFLEQSEQLFGAKPVSLTGKQEDDLANINQWVKEATEGKIQEFLSGLPEDTVLLLLNAIHFQGFWRNKFDPSLTQRDSFHLDEQFTVPVEMMQARTYPLRWFLLEQPEIQVAHFPFKNNMSFVVLVPTHFEWNVSQVLANLSWDTLHPPLVWERPTKVRLPKLYLKHQMDLVATLSQLGLQELFQAPDLRGISEQSLVVSGVQHQSTLELSEVGVEAAAATSIAMSRMSLSSFSVNRPFLFFIFEDTTGLPLFVGSVRNPNPSAPRELKEQQDSPGNKDFLQSLKGFPRGDKLFGPDLKLVPPMEEDYPQFGSPK
B3: Zinc-alpha-2-glycoprotein (protein)
chain: QENQDGRYSLTYIYTGLSKHVEDVPAFQALGSLNDLQFFRYNSKDRKSQPMGLWRQVEGMEDWKQDSQLQKAREDIFMETLKDIVEYYNDSNGSHVLQGRFGCEIENNRSSGAFWKYYYDGKDYIEFNKEIPAWVPFDPAAQITKQKWEAEPVYVQRAKAYLEEECPATLRKYLKYSKNILDRQDPPSVVVTSHQAPGEKKKLKCLAYDFYPGKIDVHWTRAGEVQEPELRGDVLHNGNGTYQSWVVVAVPPQDTAPYSCHVQHSSLAQPLVVPWEAS
B4: Protein AMBP (protein)
chain: GPVPTPPDNIQVQENFNISRIYGKWYNLAIGSTCPWLKKIMDRMTVSTLVLGEGATEAEISMTSTRWRKGVCEETSGAYEKTDTDGKFLYHKSKWNITMESYVVHTNYDEYAIFLTKKFSRHHGPTITAKLYGRAPQLRETLLQDFRVVAQGVGIPEDSIFTMADRGECVPGEQEPEPILIPRVRRAVLPQEEEGSGGGQLVTEVTKKEDSCQLGYSAGPCMGMTSRYFYNGTSMACETFQYGGCMGNGNNFVTEKECLQTCRTVAACNLPIVRGPCRAFIQLWAFDAVKGKCVLFPYGGCQGNGNKFYSEKECREYCGVPGDGDEELLRFSN
B5: Alpha-1-acid glycoprotein 2 (protein)
chain: QIPLCANLVPVPITNATLDRITGKWFYIASAFRNEEYNKSVQEIQATFFYFTPNKTEDTIFLREYQTRQNQCFYNSSYLNVQRENGTVSRYEGGREHVAHLLFLRDTKTLMFGSYLDDEKNWGLSFYADKPETTKEQLGEFYEALDCLCIPRSDVMYTDWKKDKCEPLEKQHEKERKQEEGES

These molecules were tested against T1, alpha-synuclein plaque particles (Homo sapiens, UniProt P37840) (assay: Mass spectroscopy proteomics, semi-quantitative binding affinity of serum proteins (plaqueproteome, Table 2)). Conditions: higher number = stronger affinity.
T1 construct: 140 amino acids polypeptide
Experimental: To prepare oligomers/aggregates of human alpha-synuclein (140 amino acids polypeptide), 1 mg of the recombinant alpha-synuclein protein was suspended in 1 mL of PBS and the sample was incubated at 37° C. for 2 hrs. After incubation, all the samples were centrifuged for 5 min. at 5000 rpm to remove precipitate, if any, and the supernatant containing oligomers/aggregates were used in vitro plaque particles formation assay. For detecting alpha-synuclein plaque particles Thioflavin S (Ex/Em=430 nm/550 nm) amyloid binding fluorescent dye (10 μg) was used.
Similarly, to isolate alpha-synuclein plaque particles, diluted plasma or serum samples obtained from AD subjects were used for incubation with alpha-synuclein plaque oligomers/aggregates. Each assay was performed in 1 mL reaction (800 μL of 50% plasma or serum) and 200 μL (30 μg) of the alpha-synuclein aggregates and the mixtures were incubated at 37° C. for 1 hr. To the mixture Thioflavin S dye (120 μg) was added and the sample was incubated for additional 30 min at 37° C. After the incubation, the mixture was directly used for sample acquisition using flow cytometer (FACS ARIA II, BD Biosciences, San Jose, Calif.). After initial detection of alpha-synuclein plaque particles, gates were drawn in the acquisition blot to separately sort and isolate fluorescently labeled alpha-synuclein particles.
(§1) For preparing trypsin digested peptide sequences, the isolated plaque particles were centrifuged at 10000 rpm for 5 min and the pellet containing plaque particles was resuspended in 100 μl PBS buffer. Stock solutions of digestion buffer (Ammonium Biocarbonate 50 mM), reducing buffer (DDT 100 mM) and alkylation buffer (lodoaceamide 100 mM) were prepared and stored at −20° C. for up to two months. For trypsin digestion, 100 μl of each plaque particles (2000 of Abeta-42, cholesterol, Tau and alpha-synuclein) were precipitated using cold acetone −80° C. by adding 4X's the volume. The samples were placed on dry ice for 10 min with intermittent vortex. Next, the samples were centrifuged at 4° C. at 10000 G for 10 min. Top layer of acetone was carefully removed from the tube with care not to disturb the plaque particles pellet. The samples were speed-vac for 10 min to ensure all acetone has been boiled away. The plaque particles pellet were reconstituted with 15 μl 8M Urea 100 mM Ammonium bicarbonate stock and 20 μl protease max solution. The protease max solution (Promega, Madison, Wis.) was prepared from stock by adding 60 μl 50 mM Ammonium bicarbonate and used for 3 solution digests (20 μl each). […] The tubes were incubated at 55° C. for 30 minutes. The tubes were then removed and brought to the room temperature followed by addition of 3.2 μl of 1M acrylamide and incubated at room temperature for 30 minutes. To the sample, 63 μL of 50 mM Ammonium bicarbonate was added for a final volume of 98 μl and 2 μl of trypsin (10 μg, Trypsin/Lys C Mix). After mixing the solution with pipet the samples were incubated at 37° C. overnight. After the overnight digest, the tryptic digest were quenched and acidified by adding 10 μl of 50% formic acid/water stock dilution. The samples were centrifuged at 10000 G for 2 minutes and purified using stage tip and used for MS/Mass analysis.
(§2) All MS/MS samples were analyzed using Sequest (Thermo Fisher Scientific, San Jose, Calif., USA; version 1.0). Sequest was set up to search the SUMS_uniprot_Human database (35847 entries) assuming the digestion enzyme strict trypsin. Sequest was searched with a fragment ion mass tolerance of 1.00 Da and a parent ion tolerance of 20 PPM. Propionamide of cysteine was specified in Sequest as a fixed modification. Oxidation of methionine and phospho of serine, threonine and tyrosine were specified in Sequest as variable modifications.
Scaffold (version Scaffold_4.2.1, Proteome Software Inc., Portland, Oreg.) was used to validate MS/MS based peptide and protein identifications.

**Q.** How did the “Semi-quantitative analysis of proteins binding to different plaque particles: Synuclein” value turn out when B1 was run?
**A.** 6

**Q.** Which “Semi-quantitative analysis of proteins binding to different plaque particles: Synuclein” value does the source give for B2 here?
**A.** 5

**Q.** How did the “Semi-quantitative analysis of proteins binding to different plaque particles: Synuclein” value turn out when B3 was run?
**A.** 7

**Q.** How did the “Semi-quantitative analysis of proteins binding to different plaque particles: Synuclein” value turn out when B4 was run?
**A.** 5

**Q.** B5 was tested. Which “Semi-quantitative analysis of proteins binding to different plaque particles: Synuclein” value did it give?
**A.** 10

Each molecule was assayed on High Density cholesterol (Chl Large) plaque particles in the same assay as above. Conditions: higher number = stronger affinity.
Design: species or system human
Experimental: (§3) The goal was to isolate plaque particles synthesized in the bio-fluids in a relatively pure form to enable their subsequent use for identification of components that contribute to the plaque formation. In order to isolate cholesterol plaque particles, the plasma or serum samples obtained from atherosclerotic subjects were first centrifuged at 5,000 rpm for 5 min and the supernatants were transferred to new centrifuge tubes. Next, the supernatants were diluted in PBS to make 50% of the serum and used for incubation with cholesterol oligomers/aggregates. Each assay was performed in 1 mL reaction (800 μL of 50% plasma or serum) and 200 μL (30 μg) of the Cholesterol aggregates and the mixtures were incubated at 37° C. for 1 hr After the incubation, the mixture was directly used for sample acquisition using flow cytometer (FACS ARIA II, BD Biosciences, San Jose, Calif.). […] In order to isolate these fractions, three sets of gates were drawn in the acquisition blot to separately sort and isolate High density or high complex cholesterol particles, Low density or low complex cholesterol particles and both High and low density cholesterol particles together.
as §1, §2
(§4) Scaffold (version Scaffold_4.2.1, Proteome Software Inc., Portland, Oreg.) was used to validate MS/MS based peptide and protein identifications. […] Protein probabilities were assigned by the Protein Prophet algorithm (Nesvizhskii, Al et al 2003).

**Q.** B1 was tested. Which “Semi-quantitative analysis of proteins binding to different plaque particles: Chl Large” value did it give?
**A.** 6

**Q.** With B2 as the molecule, how does the “Semi-quantitative analysis of proteins binding to different plaque particles: Chl Large” value read?
**A.** 6

**Q.** With B3 as the molecule, how does the “Semi-quantitative analysis of proteins binding to different plaque particles: Chl Large” value read?
**A.** 4

**Q.** Which “Semi-quantitative analysis of proteins binding to different plaque particles: Chl Large” value does the source give for B4 here?
**A.** 5

**Q.** B5 was tested. Which “Semi-quantitative analysis of proteins binding to different plaque particles: Chl Large” value did it give?
**A.** 5

These molecules were tested on Low density cholesterol (Chl small) plaque particles in the same assay as above. Conditions: higher number = stronger affinity.
Design: species or system human
Experimental: as §3, §1, §2, §4

**Q.** How did the “Semi-quantitative analysis of proteins binding to different plaque particles: Chl small” value turn out when B1 was run?
**A.** 7

**Q.** How did the “Semi-quantitative analysis of proteins binding to different plaque particles: Chl small” value turn out when B2 was run?
**A.** 3

**Q.** How did the “Semi-quantitative analysis of proteins binding to different plaque particles: Chl small” value turn out when B3 was run?
**A.** 5

**Q.** How did the “Semi-quantitative analysis of proteins binding to different plaque particles: Chl small” value turn out when B4 was run?
**A.** 5

**Q.** For B5, which “Semi-quantitative analysis of proteins binding to different plaque particles: Chl small” value is on record?
**A.** 7

These molecules were tested against T2, Abeta-42 plaque particles (Homo sapiens, UniProt P05067) in the same assay as above. Conditions: higher number = stronger affinity.
T2 construct: Abeta 1-42
Experimental: Next to isolate serum derived Abeta-42 plaque particles, the plasma or serum samples obtained from AD subjects were first centrifuged at 5,000 rpm for 5 min and the supernatants were transferred to new centrifuge tubes. Next, the supernatants were diluted in PBS to make 50% of the serum and plasma samples and used for incubation with Abeta-42 plaque oligomers/aggregates. Each assay was performed in 1 mL reaction (800 μL of 50% plasma or serum) and 200 μL (30 μg) of the Abeta-42 aggregates and the mixtures were incubated at 37° C. for 1 hr. To the mixture Thioflavin S dye (120 μg) was added and the sample was incubated for additional 30 min at 37° C. After the incubation, the mixture was directly used for sample acquisition using flow cytometer (FACS ARIA II, BD Biosciences, San Jose, Calif.). After initial detection of Abeta-42 plaque particles in the acquisition blot, gates were drawn in fluorescent dot blot to separately sort and isolate fluorescently labeled Abeta-42 particles.
as §1, §2
as §4, with “2003). […] Proteins sharing significant peptide evidence were grouped into clusters. Proteins were annotated with GO terms from NCBI (downloaded Jan. 17, 2014).” for “2003).”

**Q.** For B1, which “Semi-quantitative analysis of proteins binding to different plaque particles: Abeta-42” value is on record?
**A.** 4

**Q.** How did the “Semi-quantitative analysis of proteins binding to different plaque particles: Abeta-42” value turn out when B2 was run?
**A.** 0

**Q.** With B3 as the molecule, how does the “Semi-quantitative analysis of proteins binding to different plaque particles: Abeta-42” value read?
**A.** 5

**Q.** B4 was tested. Which “Semi-quantitative analysis of proteins binding to different plaque particles: Abeta-42” value did it give?
**A.** 5

**Q.** Which “Semi-quantitative analysis of proteins binding to different plaque particles: Abeta-42” value does the source give for B5 here?
**A.** 9

These molecules were tested on Tau plaque particles in the same assay as above. Conditions: higher number = stronger affinity.
Design: species or system human
Experimental: For Tau-74 (74-102) (Exon 3/Insert 2 domain) preparation, 1 mg of Tau-74 was suspended in 1 mL of PBS and the sample was incubated at 37° C. for 2 hrs. Similarly for preparing Tau-275 (275-305) (Repeat 2 domain) 1 mg of the peptide was suspended in 1 mL of PBS and the sample was incubated at 37° C. for 2 hrs. After incubation, all the samples were centrifuged for 5 min. at 5000 rpm to remove precipitate, if any, and the supernatant containing oligomers/aggregates were used for in vitro amyloid plaque particles formation assay. For detecting Tau plaque particles, Thioflavin S (Ex/Em=430 nm/550 nm) amyloid binding fluorescent dye (10 μg) was used in the assay.
Next, to isolate Tau plaque particles, as performed for Abeta-42 and Abeta-28 plaque particles isolation, diluted serum samples were used for incubation separately with Tau-45, Tau-74 and Tau-275 oligomers/aggregates. Each assay was performed in 1 mL reaction (800 μL of 50% plasma or serum) and 200 μL (30 μg) of each Tau aggregates and the mixtures were incubated at 37° C. for 1 hr. To the each mixture Thioflavin S dye (120 μg) was added and the sample was incubated for additional 30 min at 37° C. After the incubation, each sample was directly used for sample acquisition using flow cytometer (FACS ARIA II, BD Biosciences, San Jose, Calif.). After initial detection of Tau plaque particles, gates were drawn in the acquisition blot to separately sort and isolate fluorescently labeled Tau plaque particles.
as §1, §2

**Q.** How did the “Semi-quantitative analysis of proteins binding to different plaque particles: Tau” value turn out when B1 was run?
**A.** 3

**Q.** With B2 as the molecule, how does the “Semi-quantitative analysis of proteins binding to different plaque particles: Tau” value read?
**A.** 5

**Q.** For B3, which “Semi-quantitative analysis of proteins binding to different plaque particles: Tau” value is on record?
**A.** 4

**Q.** With B4 as the molecule, how does the “Semi-quantitative analysis of proteins binding to different plaque particles: Tau” value read?
**A.** 10

**Q.** Which “Semi-quantitative analysis of proteins binding to different plaque particles: Tau” value does the source give for B5 here?
**A.** 9
